These results are taken from US20040005648A1, “PYK2 related products and methods” (Sugen, Inc., priority 1994, published 2004).

The experiment concerns the target Kv1.2-HA (delayed rectifier-type potassium channel Kv1.2 with HA tag) (UniProt P63142). In words: cell-based or functional assay.

PYK2 (wild type, full length) showed an inhibition of outward current in Xenopus oocytes, 8 min after the addition of 100 nM PMA of 95%.
